Tested on: MS2 coat protein
Test: apparent KD of MS2 coat protein; designed switch direction (-1 OFF switch, 1 ON switch): -1; higher = weaker reporter binding
Outline: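 Three titration conditions were used: no input, 200 uM small-molecule ligand, and an oligonucleotide input. In each, SNAP-549-labelled MS2 coat protein was raised from 0.7 or 1.5 nM, doubling, to 3 µM over designed RNA switches transcribed on Illumina chips by stalled E. coli RNA polymerase. Curve fits of normalised cluster fluorescence gave values whose per-design median over clusters is the apparent KD.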

[1] = input ligand: microRNA oligo, concentration not stated
[2] = Eterna round: R95, input ligand: FMN 200 uM
[3] = Eterna round: R95, input ligand: microRNA oligo, concentration not stated
[4] = Eterna round: R95, input ligand: none

| Sequence | apparent KD of MS2 coat protein (input ligand: FMN 200 uM) | apparent KD of MS2 coat protein [1] | apparent KD of MS2 coat protein (input ligand: none) | apparent KD of MS2 coat protein [2] | apparent KD of MS2 coat protein [3] | apparent KD of MS2 coat protein [4] |
| --- | --- | --- | --- | --- | --- | --- |
| AACAGUACAGGAUAUACAUGAGGAUCACCCAUGUGAGACUUAAGUGGCGUACCACAAAGUAGAAGGGUACUGGA [JL Maslow Revisted mod 8] (Eterna round: R96, puzzle: Exclusion 3) | 838 nM | 85.9 nM | 90.3 nM |  |  |  |
| AAGUACCGUCACGAUAGUGAUGGUACAACAAGUAGUGAAACAUGAGGAUCACCCAUGUCCUCAAUUGCUCGUCUUAU [Sensor 3 - 81] (puzzle: Sensor v3, turn-off variant 2) |  |  |  | 776 nM | 264 nM | 1020 nM |
| UCGUUUUUUGAGGAUAUGCGACGUUCCUUCGUCGUAGAAGGCGAUACAUGAGGAUCACCCAUGUUUAUGGGCAU [LRO-Ex6-16] (puzzle: Exclusion 6) |  |  |  |  | 109 nM |  |
| GGUAGAGUGGUAGGAUAUCCGUCUGUUUCAGUCGGAGAAGGACCACAGUCACUGGGUCCUAAUAUCAUGGAGACCUGAUCUACC [pwkr exNG1 F6.12] (Eterna round: R96, puzzle: Exclusion NG 1) | 2200 nM | 316 nM | 284 nM |  |  |  |
| AGAUCACAUGAGGAUCACCCAUGUCAGGAUAUGAUACUAUGUACUUCGGUACAUAGUAUCAGAAGGGAUAUGAA [Ex1-3: 67] (puzzle: Exclusion 1) |  |  |  |  | 109 nM |  |
| CCAGCGUAUGUGAGGAUAUGCUGGUCCUUGGAUCAGCAGAAGGCACAUGAGGAUCACCCAUGUGGAAAAGUUGG [Mod of JL 23 - Jieux - Brourd's mod of Exclusion 4] (Eterna round: R97, puzzle: Brourd's mod of Exclusion 4) | 164 nM |  | 27.3 nM |  |  |  |
| CCGGCUUACUAGGAUAUCAGAGUCGAAAGACUCUGAGAAGGAGUAACAUGAGGAUCACCCAUGUGUCCUACCGG [Mod of Eli 9 - Jieux - Exclusion 6] (Eterna round: R97, puzzle: Exclusion 6) | 113 nM |  | 29.5 nM |  |  |  |
| CUUUUGGCAGGAUAUGCUUUUUUUGACAUGAGGAUCACCCAUGUGAUGCAUUUUGGGUUUGCAGAAGGGCCUGAGU [JR_E5_Sub036] (puzzle: Exclusion 5) |  |  |  |  | 56.9 nM |  |
| UAUUAACAAGCAAGAUCCUACAUGAGGAUCACCCAUGUGCUCGUCUUGUAAGGUACUGUGACGAAAGUCACGGUACC [Sensor 3, v1 - 71] (puzzle: Sensor v3, turn-off variant 1) |  |  |  | 22 nM | 232 nM | 18.9 nM |
| CGUCUGUAAGGAUAUGGUAGCAUCAACAUGAGGAUCACCCAUGUUACAUGGGACUAGUGAUUAGAAGGUACGAACG [EX5 #56] (Eterna round: R97, puzzle: Exclusion 5) | 58.5 nM |  | 80.6 nM |  |  |  |
| UUUAUAUAGUAAGGAUAUGUAUUAUUGUUAUCAACAGAAGGUACUGACAUGAGGAUCACCCAUGUUUUAGUGUGGGCAUGUAGU [JMF's solution 96] (Eterna round: R96, puzzle: Exclusion NG 1) | 425 nM | 277 nM | 446 nM |  |  |  |
| UUUUUAUAUGAAGGAUAUACUUAACAUGAGGAUCACCCAUGUGGUGUUGUGAGUGAGUGAGUUUAGUAGAAGGUCAAUGAUUAU [JMF's solution 59] (Eterna round: R96, puzzle: Exclusion NG 2) | 991 nM | 205 nM | 321 nM |  |  |  |
| AGCCAAGCAGGAUAUGCCCGGGAUAACAUGAGGAUCACCCAUGUGACCGAUUGAUGUCCUGCAGAAGGGCUUGGGA [Erxesoan] (puzzle: Exclusion 5) |  |  |  |  | 15.8 nM |  |
